± gives the standard deviation of the averaged measurements.
test system: ATP; assay: switch fluorescence ratio, 500 uM ATP over buffer (Cy3 cluster intensity, sum of 5 cycles each) (fold (ratio)); higher = stronger signal-on switching upon ATP binding; sequences stand for … in TCGTCGGCAGCGTCAGATGTGTATAAGAGACAGTTTTTTTTTTTTTTTTTTTTTTTTT…TC; conditions: aptamer strand: ATP DNA aptamer (quencher-CACCTGGGGGAGTATTGCGGAGGAAGG + anchor), 100 nM annealed; ATP concentration: 500 uM
How it was run: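 For every switch-domain sequence, the fluorescence ratio is the mean of per-cluster values, each being summed target-cycle Cy3 intensity over summed buffer-cycle Cy3 intensity. Clusters outside 100-1000 RFU were excluded. On a modified Illumina MiSeq flow-cell, the Cy3-labelled switching-strand clusters were annealed to 100 nM quencher-labelled ATP aptamer, imaged in selection buffer and then after 15 min with 500 uM ATP at 22 °C. Five such cycles were run, with NaOH stripping and re-annealing between them.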
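Note: ATP exposure 15 min at 22 °C before imaging.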

Row | Sequence | switch fluorescence ratio
1 | CATGTCCAGG | 1.46 ± 0.059
2 | ATCTAGTAGT | 1.01 ± 0.013
3 | GCGGGCGATG | 0.9902 ± 0.00014
4 | CAGCAACATG | 1.04 ± 0.024
5 | TTATTAAAAT | 0.997 ± 0.021
6 | ATTTTAGATG | 1 ± 0.025
7 | TTCGGGGGCA | 1.01 ± 0.052
8 | TTTTTTGCCG | 1.05 ± 0.14
9 | TCGCGTGTTG | 1.017 ± 0.0032
10 | TTCAGGCACG | 0.986 ± 0.049
11 | GATTTATAGG | 0.972 ± 0.052
12 | AAATAGTGCC | 1.036 ± 0.0029
13 | GACTTTGTCA | 1.04 ± 0.025
14 | TGAGGGACAT | 1.02 ± 0.046
15 | TGAGGGCCGA | 1.02 ± 0.13
16 | TTTTCTTCTC | 1.03 ± 0.028
17 | GCATATAAAC | 1.2 ± 0.17
18 | AGTAAGTCGG | 0.975 ± 0.022
19 | AAAGCTATAT | 1.12 ± 0.011
20 | TTTTGTCATT | 1 ± 0.04
21 | CTGTTTTTGT | 1.01 ± 0.024
22 | TTTCTTATTT | 1 ± 0.013
23 | GCTGGGGGCT | 1.008 ± 0.0076

Row | Sequence | switch fluorescence ratio
24 | AGGATTGGGT | 0.99 ± 0.017
25 | AAGTTTGTT | 0.983 ± 0.027
26 | CAGCTAGTGT | 0.984 ± 0.028
27 | CCAGAGGGTT | 1.03 ± 0.031
28 | GCTCATAGGA | 0.972 ± 0.016
29 | CGTACATTTA | 1.03 ± 0.051
30 | AACAGCGGGA | 1.08 ± 0.068
31 | TCGTTCTGGG | 0.996 ± 0.023
32 | AAAATGTGGG | 0.987 ± 0.041
33 | TTGAGCAAGG | 1.06 ± 0.089
34 | AGGCGGCCTG | 0.982 ± 0.016
35 | TTTTAACGCT | 1.01 ± 0.039
36 | GGTTTTTGTA | 0.995 ± 0.025
37 | TGGAAAAATG | 0.991 ± 0.031
38 | AAGGGGACAC | 1.02 ± 0.014
39 | TATGGATTGT | 1.01 ± 0.04
40 | CCACGCCAGA | 1.28 ± 0.052
41 | TGCTTGCTGT | 0.991 ± 0.01
42 | AAGACAGTGC | 0.9932 ± 0.0059
43 | GGGGTGGGGG | 1.01 ± 0.039
44 | ACGTAGCTTT | 1.37 ± 0.36
45 | TTACCTGGCT | 1.1 ± 0.059
46 | GAGTGGCTCT | 0.968 ± 0.026

Row | Sequence | switch fluorescence ratio
47 | TGCAGTGAAT | 0.999 ± 0.026
48 | AGCAACATTG | 1.01 ± 0.06
49 | AGCATATCGT | 1.04 ± 0.033
50 | GGTCTGGAAG | 0.982 ± 0.035
51 | ATATTTTGTT | 1.03 ± 0.066
52 | TTTTGTCGTG | 0.95 ± 0.033
53 | CTTGTCAGGG | 0.975 ± 0.021
54 | ATTGGTTGTG | 0.988 ± 0.035
55 | TCATGCTGGT | 1.01 ± 0.024
56 | TGCTTATTTG | 1 ± 0.023
57 | TTTTTGGTGC | 1.04 ± 0.03
58 | TCATTAAGGC | 1.01 ± 0.015
59 | GACTTACGTT | 1.22 ± 0.17
60 | GTGATAACGG | 1.008 ± 0.0091
61 | CCTTTGTATT | 1.04 ± 0.031
62 | ATAGGAAAAA | 0.963 ± 0.059
63 | GCGCATAGGG | 1.04 ± 0.044
64 | TCGACGGGGG | 1.06 ± 0.081
65 | TGAGACTTAC | 1.15 ± 0.06
66 | CGTTGCTTTG | 0.9869 ± 0.0016
67 | TGTTTAGCTT | 1.024 ± 0.0066
68 | ATCGAGTGTG | 1.01 ± 0.027
69 | TGGGTTTTTC | 0.968 ± 0.03

Row | Sequence | switch fluorescence ratio
70 | AAAGGTCGAT | 0.986 ± 0.022
71 | CAGGAGGGGG | 0.992 ± 0.053
72 | TCGGTGGGGA | 0.992 ± 0.087
73 | CGAAGGTAGG | 0.9843 ± 0.0049
74 | TATGTCAAGC | 0.96 ± 0.038
75 | ATCATTGTTA | 1 ± 0.053
76 | AGTGGGTTGG | 0.99 ± 0.014
77 | CGGCTGTATG | 0.988 ± 0.035
78 | TTAGATGGGA | 1.005 ± 0.0047
79 | GGGGGGTGCT | 1.02 ± 0.03
80 | AAAAAGCTGA | 0.973 ± 0.055
81 | TGGTTTTTGT | 1.1 ± 0.2
82 | AGAATATCGT | 0.984 ± 0.043
83 | AGGTCGGCA | 0.9919 ± 0.0092
84 | GGGTTATGCG | 1.04 ± 0.027
85 | TCATTTATTT | 0.98 ± 0.015
86 | GATTAAAAAG | 0.99 ± 0.062
87 | TGAGTTCGCA | 1.69 ± 0.13
88 | TTCCACATTT | 1.12 ± 0.16
89 | TTTCGTTTCT | 1.03 ± 0.024
90 | ACATATAGGG | 1.04 ± 0.021
91 | TAGTGAGGCG | 0.926 ± 0.0095
92 | ATGTTTAAGC | 1.05 ± 0.048

Row | Sequence | switch fluorescence ratio
93 | TCCGGCGTAT | 1.131 ± 0.0055
94 | AACGGTAGTG | 1.09 ± 0.03
95 | CCCGCGGTGT | 2.41 ± 0.19
96 | GATAAAAATA | 0.998 ± 0.018
97 | ATTTTTAAAC | 0.992 ± 0.066
98 | GGGATTTGGC | 0.995 ± 0.036
99 | TCAGATTAGT | 0.968 ± 0.016
100 | TCGAGTTGTT | 0.988 ± 0.021
101 | GATTCCAAAA | 0.975 ± 0.011
102 | TGTCAGTTTC | 0.987 ± 0.018
103 | TATGGGGGGA | 1.02 ± 0.046
104 | ACGTGTAGGC | 1.01 ± 0.04
105 | CGGTCTAGGG | 0.995 ± 0.019
106 | TATTTTTCGC | 0.967 ± 0.015
107 | TCTCGGAAAA | 0.996 ± 0.021
108 | TCAAGGTCCT | 1.127 ± 0.0091
109 | TAGCGCTTTA | 1.01 ± 0.017
110 | ATGGGCCTGG | 0.9792 ± 0.0094
111 | TATGGGGATG | 1 ± 0.024
112 | TGAGATAGAT | 1 ± 0.013
113 | CAAGTTGTTA | 0.964 ± 0.029
114 | GCCCAATAAG | 1.03 ± 0.025
115 | TGCGACCGTT | 1.01 ± 0.033

Row | Sequence | switch fluorescence ratio
116 | CAGATAGACG | 1.04 ± 0.036
117 | AAGCGGGTTT | 0.96 ± 0.03
118 | CTCGGTGAGG | 0.991 ± 0.029
119 | AACAGTAGGG | 1.03 ± 0.012
120 | TGAATTAGAA | 0.968 ± 0.018
121 | TGTTTACTTT | 0.98 ± 0.014
122 | ATCCAAGATT | 1 ± 0.019
123 | GTTAATTAGC | 1.03 ± 0.041
124 | GTACGCGGAC | 1.07 ± 0.022
125 | GACTATTGGG | 1 ± 0.044
126 | TGGGGGTATT | 1.05 ± 0.16
127 | TGGATGTCAG | 0.992 ± 0.054
128 | ATTGCTCTGT | 1.04 ± 0.036
129 | GGGTATATGG | 1.01 ± 0.022
130 | TGGATGAGTG | 0.9822 ± 0.0077
131 | TTAGGGTGAA | 1.02 ± 0.032
132 | CACGGCTATG | 1.06 ± 0.046
133 | ATATTTAGCG | 0.968 ± 0.016
134 | CGTTTTTTCG | 1 ± 0.075
135 | AAGGGAGGCG | 1.14 ± 0.2
136 | ATTGCTAAGC | 1.039 ± 0.0054
137 | ATGGTGGGGC | 0.979 ± 0.047
138 | AAGGGATGCT | 1 ± 0.011

Row | Sequence | switch fluorescence ratio
139 | ATAATTTGGG | 0.99 ± 0.017
140 | CATAGGTTGC | 0.983 ± 0.041
141 | ACCCGAGGGA | 1.05 ± 0.05
142 | TGAGTCGTGT | 0.9674 ± 0.0054
143 | GCATTCGGTT | 0.972 ± 0.039
144 | TGAAGTGAAT | 1.01 ± 0.011
145 | GGATGGAAAT | 1.04 ± 0.012
146 | GAATTTGGAA | 1.01 ± 0.022
147 | TAGGAAAGGG | 0.997 ± 0.027
148 | AGCCAGAGAC | 1.07 ± 0.036
149 | ACGGAAATTT | 1.021 ± 0.0052
150 | TGGGGGCAGC | 1.02 ± 0.025
151 | AAGAAACACA | 1.02 ± 0.038
152 | CTCGGTGTGG | 1 ± 0.033
153 | GGTATTCATT | 0.995 ± 0.036
154 | GACTGAATAC | 3.91 ± 1.9
155 | TCCCGATTGG | 0.959 ± 0.028
156 | GAGGGAGGTC | 0.968 ± 0.043
157 | TTAATTTAAA | 0.9752 ± 0.0031
